From article PMC10147923, “Pain-causing stinging nettle toxins target TMEM233 to modulate NaV1.7 function” (Nature Communications, 2023) come the findings set out here.

The target of one experiment is NaV1.7/TMEM233 (Homo sapiens, UniProt B4DJY2+Q15858). The experiment can be described thus: Proximity ligation assay NaV1.7 and TMEM233. The note with it: Fig 5e. As to the method:
HEK293 cells stably expressing β1/β2 were transiently transfected in T25 flasks using Lipofectamine 2000 with plasmids encoding GFP (0.35 μg) as a transfection control, as well as N-terminal HA-tagged TMEM233 (0.35 μg) and N-terminal FLAG- tagged NaV1.7 (1.0 μg) alone or in combination. The total amount of plasmid DNA/T25 flask was kept constant at 1.7 μg flask using empty pcDNA3.1 plasmid as required. After 24 h incubation at 37 °C, cells were plated on PDL-coated glass coverslips and cultured for a further 24 h. Cells were washed once using sterile phosphate-buffered saline, fixed with 4% formaldehyde for 5 min, permeabilized with 0.1% Triton-X 100 in PSS, blocked using proximity ligation bocking buffer (Sigma DUO82007) and incubated for 1 h with anti-FLAG (1:1000; Sigma F1804) and anti-HA (1:1000; Sigma H6908) antibodies in Duolink antibody diluent. Permeabilized cells were then washed twice with wash buffer A at room temperature for 5 min. Anti-mouse PLUS (Sigma DUO92001) and anti-rabbit MINUS (Sigma DUO92005) probes were diluted 1:5 in Duolink antibody diluent and incubated with cells for 1 h at 37 °C. Cells were then washed with wash buffer A at room temperature for 5 min twice and incubated with ligase diluted 1:40 in ligation buffer. After incubation at 37 °C for 30 mins, cells were washed twice with wash buffer A. Polymerase was diluted 1:80 in amplification buffer and incubated with cells for 100 mins at 37 °C. Cells were subsequently washed with wash buffer B twice for 10 mins and mounted with Duolink In Situ mounting media with DAPI. Cells were imaged on a Zeiss AxioImage M2 with Apotome2 and Axiocam 506 camera. Proximity ligation assay signal (PLA particles) in GFP-positive cells were quantified using ImageJ in collapsed stacks from 3–6 random images obtained per coverslip (Image>Type>8-bit; Image>Adjust>Threshold; Image>Analyze>Analyze Particles). Particles size was set to 0.0003–∞ and circularity to 0.00–1.00. The average number of particles/GFP-positive cells from three independent experiments was analyzed by One-way ANOVA.

The target of another experiment is NaV1.7 (Homo sapiens, UniProt Q15858). It counts as cell-based. As to the method:
To determine recovery from fast inactivation, a 20 ms pulse to 0 mV from a holding potential of −90 mV was used to induce fast inactivation. A subsequent recovery period, ranging from 1 ms to 2216 ms in 50% increments at −90 mV, was followed by a last 20 ms test pulses to 0 mV to determine the time-dependence of recovery from fast inactivation. The proportion of available channels was determined by normalizing peak currents from the last to the first pulse. A two-phase exponential equation was fit to the normalized current, plotted as a function of time, to determine the time constants τ1 and τ2 of recovery from fast inactivation.

Values joined by “and” are separate entries in the source; they are usually repeats but may differ in a detail not shown here. Identical values can stand only once.

Sequence of NaV1.7/TMEM233 (Q07699 19-218, one chain of several, further chain): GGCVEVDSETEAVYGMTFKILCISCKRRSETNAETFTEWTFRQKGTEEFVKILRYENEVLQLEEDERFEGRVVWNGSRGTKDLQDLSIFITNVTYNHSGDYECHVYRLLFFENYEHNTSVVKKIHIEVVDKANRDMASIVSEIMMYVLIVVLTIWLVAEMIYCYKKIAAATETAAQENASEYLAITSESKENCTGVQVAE
Sequence of NaV1.7/TMEM233 (Q15858 whole entry, one chain of several): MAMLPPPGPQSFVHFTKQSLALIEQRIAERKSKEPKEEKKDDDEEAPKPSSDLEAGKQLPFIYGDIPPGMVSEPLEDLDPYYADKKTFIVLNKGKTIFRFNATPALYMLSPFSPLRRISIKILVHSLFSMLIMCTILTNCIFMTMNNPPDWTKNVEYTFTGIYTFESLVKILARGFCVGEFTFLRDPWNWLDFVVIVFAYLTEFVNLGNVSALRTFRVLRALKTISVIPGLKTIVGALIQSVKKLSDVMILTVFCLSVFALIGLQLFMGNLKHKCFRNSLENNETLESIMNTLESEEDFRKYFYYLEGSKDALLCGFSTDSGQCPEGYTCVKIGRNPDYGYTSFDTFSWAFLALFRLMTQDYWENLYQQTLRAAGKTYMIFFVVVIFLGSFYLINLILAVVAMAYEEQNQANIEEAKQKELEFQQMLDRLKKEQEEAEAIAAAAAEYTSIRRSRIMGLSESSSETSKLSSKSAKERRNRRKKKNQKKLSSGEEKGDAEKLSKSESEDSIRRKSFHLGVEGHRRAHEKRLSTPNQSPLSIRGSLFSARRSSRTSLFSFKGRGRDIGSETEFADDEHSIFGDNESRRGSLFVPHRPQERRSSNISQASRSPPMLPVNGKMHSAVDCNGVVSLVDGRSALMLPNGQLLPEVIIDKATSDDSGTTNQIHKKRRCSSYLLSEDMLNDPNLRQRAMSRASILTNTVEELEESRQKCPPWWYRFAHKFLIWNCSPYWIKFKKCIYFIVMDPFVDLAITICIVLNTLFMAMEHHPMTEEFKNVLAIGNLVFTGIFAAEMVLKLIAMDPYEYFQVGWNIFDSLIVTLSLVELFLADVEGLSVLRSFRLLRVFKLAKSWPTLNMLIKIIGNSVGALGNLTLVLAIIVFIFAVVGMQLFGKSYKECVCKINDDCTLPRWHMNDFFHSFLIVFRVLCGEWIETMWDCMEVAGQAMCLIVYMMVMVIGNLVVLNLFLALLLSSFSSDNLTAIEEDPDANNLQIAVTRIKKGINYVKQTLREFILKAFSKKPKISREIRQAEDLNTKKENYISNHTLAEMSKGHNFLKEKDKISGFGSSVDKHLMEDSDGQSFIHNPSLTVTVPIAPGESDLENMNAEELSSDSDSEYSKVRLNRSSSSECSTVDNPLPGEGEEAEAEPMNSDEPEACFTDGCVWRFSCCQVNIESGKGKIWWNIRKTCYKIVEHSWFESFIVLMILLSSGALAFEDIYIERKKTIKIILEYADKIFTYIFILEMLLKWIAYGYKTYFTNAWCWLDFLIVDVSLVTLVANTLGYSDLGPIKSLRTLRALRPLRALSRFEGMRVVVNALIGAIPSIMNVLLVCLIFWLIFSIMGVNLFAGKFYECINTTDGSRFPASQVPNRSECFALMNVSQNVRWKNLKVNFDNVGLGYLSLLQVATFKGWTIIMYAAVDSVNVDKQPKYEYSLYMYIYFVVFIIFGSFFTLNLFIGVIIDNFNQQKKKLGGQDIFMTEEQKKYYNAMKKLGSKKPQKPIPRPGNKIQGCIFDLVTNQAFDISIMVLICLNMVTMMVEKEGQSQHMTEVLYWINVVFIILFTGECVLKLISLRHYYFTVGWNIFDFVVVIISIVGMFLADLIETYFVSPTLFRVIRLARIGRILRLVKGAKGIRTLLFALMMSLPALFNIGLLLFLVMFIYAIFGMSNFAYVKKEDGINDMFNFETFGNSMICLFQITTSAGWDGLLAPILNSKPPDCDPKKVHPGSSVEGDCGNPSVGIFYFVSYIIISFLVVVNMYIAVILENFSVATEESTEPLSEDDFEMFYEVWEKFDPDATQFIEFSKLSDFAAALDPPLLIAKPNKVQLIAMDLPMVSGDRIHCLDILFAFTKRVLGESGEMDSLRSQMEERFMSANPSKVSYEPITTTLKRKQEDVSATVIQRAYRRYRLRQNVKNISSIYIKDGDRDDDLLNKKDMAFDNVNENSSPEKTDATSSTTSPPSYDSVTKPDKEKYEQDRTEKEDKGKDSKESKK
Sequence of NaV1.7 (Q15858 whole entry): as the sequence (Q15858 whole entry, one chain of several) above
Sequence of NaV1.7 (Q07699 19-218, further chain): as the sequence (Q07699 19-218, one chain of several, further chain) above

B1: HA-TMEM233 (protein, UniProt B4DJY2 1-109, looked up)
Transmembrane protein 233: MSQYAPSPDFKRALDSSPEANTEDDKTEEDVPMPKNYLWLTIVSCFCPAYPINIVALVFSIMSLNSYNDGDYEGARRLGRNAKWVAIASIIIGLLIIGISCAVHFTRNA
modifications: HA tag
B1: in the experiment with NaV1.7/TMEM233 (mean of n = 3), the “particles/cell, mean” value was found to be 7.485 particles/cell. The results for the particles/cell with NaV1.7/TMEM233 (replicate 1), with NaV1.7/TMEM233 (replicate 2) and with NaV1.7/TMEM233 (replicate 3) were 4.895 particles/cell, 6.562 particles/cell and 11 particles/cell, respectively.

B2: TMEM233 35-109 (protein, UniProt B4DJY2 35-109, looked up, fragment)
chain: KNYLWLTIVSCFCPAYPINIVALVFSIMSLNSYNDGDYEGARRLGRNAKWVAIASIIIGLLIIGISCAVHFTRNA
In the case of B2, in the experiment with NaV1.7, the “Tau Fast, individual values” is 8.336 and 5.75 and 6.866 and 4.165 and 7.033 and 6.03 and 5.901; the “Tau Fast, mean” value came to 6.297; the “Tau Fast, mean diff. NaV1.7/β1/TMEM233 35-109 vs. NaV1.7/β1” value is given as 0.2467.
